Data published in patent US7105638B1.

Target: Example III polypeptide 2 (modified truncated TRP-LE - Asp-Leu hinge - Glu - salmon calcitonin Asp 15 analog) (salmon) (UniProt P01263)

## S. aureus V-8 protease (from UniProt P0C1U8) (enzyme)
  completeness of cleavage at the Glu residue amino terminal to calcitonin: > 95%
